How the values were obtained:
[1] = biological target: human wild-type p53 (product of p53-H8 cDNA, plasmid pSP65-p53H8) (human, UniProt P04637 1-393); assay: cell-based or functional assay
[2] = biological target: T1, GST-RB18A-N1 (aa 436 to 1566) fusion protein (human, UniProt Q15648 451-1581); assay: GST pull-down of 35S-translated product on glutathione Sepharose beads
T1 construct: D9 cDNA cloned downstream of the glutathione transferase gene in pGEX4T-3; also called GST-RB18A fusion protein; mutant 1; not shown: GST moiety (glutathione transferase of pGEX4T-3) and the vector linker between GST and RB18A
From the text: (§1) GST fusion proteins were produced in E. coli strain BL21 and purified on glutathione Sepharose 4B beads (Pharmacia LKB) as described by the manufacturer. […] After washing, pelleting, and boiling in Laemmli buffer, eluted proteins were resolved on 10% SDS/PAGE and visualized by autoradiography.

[3] = biological target: T1, GST-RB18A-N1 (aa 436 to 1566) fusion …; assay: GST pull-down, quantification of retained protein
From the text: as §1

Sequence of human wild-type p53 (product of p53-H8 cDNA, plasmid pSP65-p53H8) (P04637 whole entry, the tested form may be a part): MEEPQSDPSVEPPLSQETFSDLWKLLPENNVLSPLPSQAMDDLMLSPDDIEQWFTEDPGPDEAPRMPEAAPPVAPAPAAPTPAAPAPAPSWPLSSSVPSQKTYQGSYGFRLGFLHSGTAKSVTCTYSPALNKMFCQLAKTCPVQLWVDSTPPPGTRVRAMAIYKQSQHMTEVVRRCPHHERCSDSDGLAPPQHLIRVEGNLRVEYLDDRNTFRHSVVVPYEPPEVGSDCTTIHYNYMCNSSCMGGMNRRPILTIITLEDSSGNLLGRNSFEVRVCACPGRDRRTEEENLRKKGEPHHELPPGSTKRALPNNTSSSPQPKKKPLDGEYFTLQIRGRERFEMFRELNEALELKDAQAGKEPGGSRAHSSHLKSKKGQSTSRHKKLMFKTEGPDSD

B1: carboxy-terminal domain of RB18A expressed in transfected cells (cDNA nucleotides 3935 to 4933) (other)
chain: LGSSGSLSQKTPPSSNSCTASSSSFSSSGSSMSSSQNQHGSSKGKSPSRNKKPSLTAVIDKLKHGVVTSGPGGEDPLDGQMGVSTNSSSHPMSSKHNMSGGEFQGKREKSDKDKSKVSTSGSSVDSSKKTSESKNVGSTGVAKIIISKHDGGSPSIKAKVTLQKPGESSGEGLRPQMASSKNYGSPLISGSTPKHERGSPSHSKSPAYTPQNLDSESESGSSIAEKSYQNSPSSDDGIRPLPEYSTEKHKKHKKEKKKVKDKDRDRDRDKDRDKKKSHSIKPESWSKSPISSDQSLSMTSNTILSADRPSRLSPDFMIGEEDDDLMDVALIGN
- activation of the IGF-BP3 promoter (reporter gene in H1299 and K562 cells) [1]: 13 fold
- activation of the MDM2 promoter (reporter gene in H1299 and K562 cells) [1]: 5 fold
- activation of the p21Waf1 promoter (reporter gene in H1299 and K562 cells) [1]: 10 fold

B2: in vitro translated product of D9 cDNA (partial RB18A, aa 436 to 1566) (other)
chain: SVSFQHPVNDSLVCVVMDVQGLTHVSCKLYKGLSDALICTDDFIAKVVQRCMSIPVTMRAIRRKAETIQADTPALSLIAETVEDMVKKNLPPASSPGYGMTTGNNPMSGTTTSTNTFPGGPIATLFNMSMSIKDRHESVGHGEDFSKVSQNPILTSLLQITGNGGSTIGSSPTPPHHTPPPVSSMAGNTKNHPMLMNLLKDNPAQDFSTLYGSSPLERQNSSSGSPRMEICSGSNKTKKKKSSRLPPEKPKHQTEDDFQRELFSMDVDSQNPIFDVNMTADTLDTPHITPAPSQCSTPPTTYPQPVPHPQPSIQRMVRLSSSDSIGPDVTDILSDIAEEASKLPSTSDDCPAIGTPLRDSSSSGHSQSTLFDSDVFQTNNNENPYTDPADLIADAAGSPSSDSPTNHFFHDGVDFNPDLLNSQSQSGFGEEYFDESSQSGDNDDFKGFASQALNTLGVPMLGGDNGETKFKGNNQADTVDFSIISVAGKALAPADLMEHHSGSQGPLLTTGDLGKEKTQKRVKEGNGTSNSTLSGPGLDSKPGKRSRTPSNDGKSKDKPPKRKKADTEGKSPSHSSSNRPFTPPTSTGGSKSPGSAGRSQTPPGVATPPIPKITIQIPKGTVMVGKPSSHSQYTSSGSVSSSGSKSHHSHSSSSSSSASTSGKMKSSKSEGSSSSKLSSSMYSSQGSSGSSQSKNSSQSGGKPGSSPITKHGLSSGSSSTKMKPQGKPSSLMNPSLSKPNISPSHSRPPGGSDKLASPMKPVPGTPPSSKAKSPISSGSGGSHMSGTSSSSGMKSSSGLGSSGSLSQKTPPSSNSCTASSSSFSSSGSSMSSSQNQHGSSKGKSPSRNKKPSLTAVIDKLKHGVVTSGPGGEDPLDGQMGVSTNSSSHPMSSKHNMSGGEFQGKREKSDKDKSKVSTSGSSVDSSKKTSESKNVGSTGVAKIIISKHDGGSPSIKAKVTLQKPGESSGEGLRPQMASSKNYGSPLISGSTPKHERGSPSHSKSPAYTPQNLDSESESGSSIAEKSYQNSPSSDDGIRPLPEYSTEKHKKHKKEKKKVKDKDRDRDRDKDRDKKKSHSIKPESWSKSPISSDQSLSMTSNTILSADRPSRLSPDFMIGEEDDDLMDVALIGN
modifications: 35S-methionine labelled
notes: also called 35S-RB18A protein; in vitro translated D9 protein
- % of input bound [2]: 10 % of input
- molar ratio retained on GST-RB18A [3]: 1 molar ratio

— patent US20040052794A1 (published 2004)
